Reference: patent publication US20230002478A1

Columns and labels:
Settings in all cases: remark: other sources report otherwise
[1] = biological target: biotinylated D614G SARS-CoV-2 spike trimer (SARS-CoV-2), P0DTC2; experiment: AlphaLISA, inhibition of ACE2-muFc / biotinylated spike complex
[2] = biological target: biotinylated SARS-CoV-2 spike RBD (Ancestral) (SARS-CoV-2), P0DTC2; experiment: as above
[3] = biological target: biotinylated SARS-CoV-2 spike trimer, Delta (SARS-CoV-2), P0DTC2; experiment: as above
[4] = biological target: S1 RBD fused to mouse Fc, Beta variant (SARS-CoV-2), P0DTC2; experiment: flow cytometry: inhibition of S1 RBD-mFc binding to Vero E6 cells (ACE2)
[5] = biological target: S1 RBD-mFc (Acro SPD-05259) (SARS-CoV-2), P0DTC2; experiment: as above
[6] = biological target: SARS-CoV-2 S RBD (E484K) (SARS-CoV-2), P0DTC2; experiment: SPR
[7] = biological target: SARS-CoV-2 S RBD (K417N) (SARS-CoV-2), P0DTC2; experiment: SPR
[8] = biological target: SARS-CoV-2 S RBD (N439K) (SARS-CoV-2), P0DTC2; experiment: SPR
[9] = biological target: SARS-CoV-2 S RBD (N501Y) (SARS-CoV-2), P0DTC2; experiment: SPR
[10] = biological target: SARS-CoV-2 S RBD (Y453F) (SARS-CoV-2), P0DTC2; experiment: SPR
[11] = biological target: SARS-CoV-2 S Trimer (SARS-CoV-2), P0DTC2; experiment: SPR
[12] = biological target: SARS-CoV-2 S1 (D614G) (SARS-CoV-2), P0DTC2; experiment: SPR
[13] = biological target: SARS-CoV-2 S1-Fc (South Africa 178-08) (SARS-CoV-2), P0DTC2; experiment: SPR

Binder | IC50 [1] [nM] | IC50 [2] [nM] | IC50 [3] [nM] | IC50 [4] [nM] | IC50 [5] [nM] | Kd [6] [nM] | Kd [7] [nM] | Kd [8] [nM] | Kd [9] [nM] | Kd [10] [nM] | Kd [11] [nM] | Kd [12] [nM] | Kd [13] [nM]
antibody 339-031 (Fc fusion) EVQLVESGGGLVQPGGSLRLSCAASGSTFSINAMGWFRQAPGKEREFVAGITSSGGYTNYADSVKGRFTISADNSKNTAYLQMNSLKPEDTAVYYCAADGVPEYSDYASGPVWGQGTLVTVSS | 2.1 | 5.6 | 3 | > 100 | 1.25 | – | – | – | – | – | – | – | –
antibody 202-03 (Fc fusion) EVQLVESGGGLVQPGGSLRLSCAASGFTFSPSWMGWFRQAPGKEREFVATINEYGGRNYADSVKGRFTISADNSKNTAYLQMNSLKPEDTAVYYCARVDRDFDYWGQGTLVTVSS | 4 | 8.3 | – | 0.587 | – | – | – | – | – | – | – | – | –
6-3 (Fc fusion) EVQLVESGGGLVQPGGSLRLSCAASGFTFSPSWMGWFRQAPGKEREFVATINEYGGRNYADSVKGRFTISADNSKNTAYLQMNSLKPEDTAVYYCARVDRDFDYWGQGTLVTVSS | – | – | – | – | – | 4.6 | 5.9 | 9.5 | 0.71 | 5.7 | 2.4 | 19 | 6.1
